This passage reports percentage of cells with PABPC1-positive stress granules after sodium arsenite results from patent US20210269780A1.

The target in the test is G3BP (human) (UniProt Q13283).

As for mCherry-sspB, the percentage of cells with PABPC1-positive stress granules after sodium arsenite is 85 % of cells. On to “G3BPdi-mCherry-sspB (from UniProt Q13283)”, for which the percentage of cells with PABPC1-positive stress granules after sodium arsenite was 46 % of cells.
